Molecular target: cross-linked CA 4Mu hexamer (HIV-1 (NL4-3 strain))
Assay: SPR; Biacore T100; minimally biotinylated WT CA or CA 4Mu hexamer captured on neutravidin on CM5 chips, CAI injected (100 µM and 3-fold dilutions); 50 mM sodium phosphate pH 7.5, 150 mM NaCl, 0.01% P20; steady-state one-site fit

B1: CAI peptide (peptide)
peptide: ITFEDLLDYYGP
Kd: > 100 µM
